T1: APC (Homo sapiens)
T1 chain: HSGSYLVTSV

T2: ABR (Homo sapiens)
T2 chain: RNTLYFSTDV

T3: AHDC1 (Homo sapiens)
T3 chain: PEDTFTVTSL

T4: ZO2 (Homo sapiens)
T4 chain: QSARYDTEL

T5: ZNF654 (Homo sapiens)
T5 chain: SSAQPSETIL

T6: ANKS4B (Homo sapiens)
T6 chain: QPGQLVDTSL


What was measured:
Assay in all cases: fluorescence polarization
APC = molecular target: T1, APC
ABR = molecular target: T2, ABR
AHDC1 = molecular target: T3, AHDC1
ZO2 = molecular target: T4, ZO2
ZNF654 = molecular target: T5, ZNF654
ANKS4B = molecular target: T6, ANKS4B

Row | Binder | Kd (APC) [µM] | Kd (ABR) [µM] | Kd (AHDC1) [µM] | Kd (ZO2) [µM] | Kd (ZNF654) [µM] | Kd (ANKS4B) [µM]
1 | Scrib PDZ1 (protein) not shown | 12.3 | 12.5 | 19.2 | 16 |  | 
2 | Scrib PDZ3 (protein) PVEEIRLPRAGGPLGLSIVGGSDHSSHPFGVQEPGVFISKVLPRGLAARSGLRVGDRILAVNGQDVRDATHQEAVSALLRPCLELSLLVRRDPAPP | 6.7 | 2.9 | 10.4 | 13.7 | 18.3 | 28.2
3 | Scrib PDZ2 (protein) QRHVACLARSERGLGFSIAGGKGSTPYRAGDAGIFVSRIAEGGAAHRAGTLQVGDRVLSINGVDVTEARHDHAVSLLTAASPTIALLLEREAGGP | 9.5 | 10.4 |  |  | 32.1 | 

Source: publication PMC3189207 (2011)
